Source: publication PMC6101539 (Nucleic Acids Research, 2018)

What was measured:
Assay in all cases: EMSA
[1] = molecular target: T1, RarA (Bacillus subtilis, UniProt O34528 1-421)
T1 sequence: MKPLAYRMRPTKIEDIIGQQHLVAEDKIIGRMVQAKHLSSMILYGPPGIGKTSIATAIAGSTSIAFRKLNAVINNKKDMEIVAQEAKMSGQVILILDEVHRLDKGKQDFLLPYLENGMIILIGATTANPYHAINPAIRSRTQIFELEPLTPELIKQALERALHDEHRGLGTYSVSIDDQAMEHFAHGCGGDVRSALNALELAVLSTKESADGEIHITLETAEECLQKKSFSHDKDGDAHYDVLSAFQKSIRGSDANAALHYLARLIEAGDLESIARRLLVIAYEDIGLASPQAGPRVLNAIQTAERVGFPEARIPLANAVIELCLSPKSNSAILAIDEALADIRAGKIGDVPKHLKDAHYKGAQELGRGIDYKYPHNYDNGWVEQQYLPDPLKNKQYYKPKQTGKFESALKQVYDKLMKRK

[2] = molecular target: T2, RarA;SsbBA chimera (SsbB*) (Bacillus subtilis;Bacillus subtilis, UniProt O34528;C0SPB6 1-421;1-113+P37455:164-172, |internal_change)
T2 sequence 1: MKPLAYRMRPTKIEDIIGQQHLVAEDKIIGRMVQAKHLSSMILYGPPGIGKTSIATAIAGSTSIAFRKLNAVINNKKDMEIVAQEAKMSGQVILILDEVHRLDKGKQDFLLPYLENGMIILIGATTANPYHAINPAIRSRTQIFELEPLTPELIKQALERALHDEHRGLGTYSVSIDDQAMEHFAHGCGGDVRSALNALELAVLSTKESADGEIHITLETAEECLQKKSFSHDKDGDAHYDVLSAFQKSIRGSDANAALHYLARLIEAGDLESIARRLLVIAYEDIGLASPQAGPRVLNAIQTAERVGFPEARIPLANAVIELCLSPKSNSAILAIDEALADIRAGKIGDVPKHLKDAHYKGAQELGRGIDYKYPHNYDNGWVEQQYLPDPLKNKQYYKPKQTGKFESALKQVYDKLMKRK
T2 sequence 2: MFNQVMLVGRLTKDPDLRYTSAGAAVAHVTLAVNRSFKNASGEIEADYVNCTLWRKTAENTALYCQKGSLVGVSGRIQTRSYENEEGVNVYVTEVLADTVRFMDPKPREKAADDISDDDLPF

[3] = molecular target: T3, RarA;SsbA (Bacillus subtilis;Bacillus subtilis, UniProt O34528;P37455 1-421;1-172, |)
T3 sequence 1: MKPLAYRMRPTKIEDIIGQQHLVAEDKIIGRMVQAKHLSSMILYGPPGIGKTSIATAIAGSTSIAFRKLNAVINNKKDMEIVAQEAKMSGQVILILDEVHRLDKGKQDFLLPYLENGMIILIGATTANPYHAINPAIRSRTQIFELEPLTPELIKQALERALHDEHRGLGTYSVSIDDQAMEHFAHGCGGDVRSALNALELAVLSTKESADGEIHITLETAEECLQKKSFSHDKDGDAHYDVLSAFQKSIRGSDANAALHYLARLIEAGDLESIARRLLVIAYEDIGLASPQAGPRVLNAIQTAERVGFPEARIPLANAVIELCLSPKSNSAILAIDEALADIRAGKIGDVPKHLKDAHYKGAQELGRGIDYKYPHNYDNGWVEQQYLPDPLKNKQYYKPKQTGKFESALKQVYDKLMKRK
T3 sequence 2: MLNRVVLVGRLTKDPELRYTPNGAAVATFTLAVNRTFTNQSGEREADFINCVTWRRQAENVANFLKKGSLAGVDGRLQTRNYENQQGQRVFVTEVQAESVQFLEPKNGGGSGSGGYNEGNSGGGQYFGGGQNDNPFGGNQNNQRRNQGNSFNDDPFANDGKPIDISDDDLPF

[4] = molecular target: T4, RarA K51A;SsbA (Bacillus subtilis;Bacillus subtilis, UniProt O34528;P37455 1-421;1-172, K51A|)
T4 sequence 1: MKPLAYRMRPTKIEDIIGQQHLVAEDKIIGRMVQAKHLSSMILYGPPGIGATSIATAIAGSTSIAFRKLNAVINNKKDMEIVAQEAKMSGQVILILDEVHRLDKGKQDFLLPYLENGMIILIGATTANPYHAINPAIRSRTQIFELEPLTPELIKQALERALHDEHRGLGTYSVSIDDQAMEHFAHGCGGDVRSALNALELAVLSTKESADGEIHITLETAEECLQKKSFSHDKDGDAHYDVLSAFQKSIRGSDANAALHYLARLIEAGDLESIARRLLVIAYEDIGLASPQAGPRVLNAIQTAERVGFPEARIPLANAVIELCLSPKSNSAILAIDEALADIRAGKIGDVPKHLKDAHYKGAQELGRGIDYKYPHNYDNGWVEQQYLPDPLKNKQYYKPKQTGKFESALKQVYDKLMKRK
T4 sequence 2: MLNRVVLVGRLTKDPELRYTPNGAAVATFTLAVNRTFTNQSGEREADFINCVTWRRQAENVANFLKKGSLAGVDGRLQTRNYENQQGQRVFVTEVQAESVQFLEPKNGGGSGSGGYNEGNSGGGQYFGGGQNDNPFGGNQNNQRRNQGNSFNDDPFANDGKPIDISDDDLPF

[5] = molecular target: T5, SsbB (Bacillus subtilis, UniProt C0SPB6 1-113)
T5 sequence: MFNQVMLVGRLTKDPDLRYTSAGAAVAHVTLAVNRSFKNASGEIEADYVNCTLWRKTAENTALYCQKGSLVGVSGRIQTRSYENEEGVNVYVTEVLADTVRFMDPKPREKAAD

[6] = molecular target: T6, SsbA (Bacillus subtilis, UniProt P37455 1-172)
T6 sequence: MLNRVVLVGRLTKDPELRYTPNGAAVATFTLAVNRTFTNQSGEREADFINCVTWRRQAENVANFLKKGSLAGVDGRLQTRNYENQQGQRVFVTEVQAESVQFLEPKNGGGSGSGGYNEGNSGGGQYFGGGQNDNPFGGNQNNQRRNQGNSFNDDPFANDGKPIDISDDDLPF

B1: dsDNA (100U/100D) (dsDNA)
DNA 1: GGGCGAATTGGGCCCGACGTCGCATGCTCCTCTAGACTCGAGGAATTCGGTACCCCGGGTTCGAAATCGATAAGCTTACAGTCTCCATTTAAAGGACAAG
DNA 2: CTTGTCCTTTAAATGGAGACTGTAAGCTTATCGATTTCGAACCCGGGGTACCGAATTCCTCGAGTCTAGAGGAGCATGCGACGTCGGGCCCAATTCGCCC
- Kd [1]: ~37 nM

B2: 91-nt ssDNA (F1) (ssDNA)
DNA: TATAAAAAAAGCCAAGCTTGCATGCCTGCAGGTCGACTCTAGAGGATCCCCGGGTACCGAGCTCGAATTCACTGGCCGTCGTTTTACAACG
- binding result [2]: binds
- binding result [3]: binds
- binding result [4]: binds
- Kd [5]: ~6 nM
- Kd [1]: ~12 nM

B3: fork DNA (F1/F2) (dsDNA)
DNA 1: TATAAAAAAAGCCAAGCTTGCATGCCTGCAGGTCGACTCTAGAGGATCCCCGGGTACCGAGCTCGAATTCACTGGCCGTCGTTTTACAACG
DNA 2: AATTCGTTGTAAAACGACGGCCAGTGAATTCGAGCTCGGTACCCGCCAGCCACAGTCAGACACACACACACTACACACAAAAAAAAAAA
- binding result [3]: binds
- binding result [6]: binds
- Kd [1]: ~12 nM
